Tested on: S. cerevisiae 334
Experiment: Mouse elongase MELO4 activity in yeast
Assay type: cell-based, Saccharomyces cerevisiae
Method: The construct pRAE-84 was transformed into S. cerevisiae 334 (Hoveland et al., supra) and screened for elongase activity. The negative control strain was S. cerevisiae 334 containing pYX242 vector. The cultures were grown for 42-48 hours at 30° C., in selective media (Ausubel et al., supra), in the presence of 25 μM of GLA, AA, ADA, STA, EPA, or DPA. […] However, there were accumulations of ADA, ω6-tetracosatetraenoic acid (TTA, C24:4n-6), ETA, DPA, and ω3-tetracosapentaenoic acid (TPA, C24:5n-3), respectively (FIG. 56). The n-6 fatty acid substrate AA was converted to ADA, which was subsequently converted to TTA, and the n-3 fatty acid EPA was converted to DPA, which was subsequently converted to TPA. The levels of these fatty acids were 0.64% (ADA), 1.07% (TTA), 1.47% (DPA), and 7.06% (TPA), respectively, of the total fatty acids in the strain containing the pRAE-84 sequence. […] The expression of MELO4 in yeast results in the conversion of C20 and C22 fatty acids to the respective elongated products. The conversion rate of C22 to C24 fatty acids is much greater when the exogenously added substrate is […].
To further confirm the substrate specificity of MELO4 protein (MELO4), the recombinant yeast strain 334(pRAE-84) was grown in minimal media containing 25 μM of saturated, monounsaturated, or polyunsaturated fatty acids. […] When AA was added exogenously, the levels of product fatty acids were 0.5% (ADA) and 0.39% (TTA), and when ADA was added exogenously, the level of product fatty acid was 1.3% (TTA) of the total fatty acids in the strain containing the pRAE-84 sequence. […] MELO4p is also involved in the elongation of GLA to DGLA. The lipid profile of the strain containing the pRAE-84 sequence, in presence of GLA, had 0.43% of DGLA, which represented 14.7% conversion of GLA to DGLA. MELO4p is also involved in the elongation of n-3 PUFAs EPA and DPA (FIG. 53C). […] When EPA was added, the levels of these fatty acids were 1.21% (DPA) and 3.38% (TPA), and when DPA was added, the level of the product fatty acid was 3.09% (TPA) of the total fatty acids in the strain containing the pRAE-84 sequence. […] MELO4p is also involved in the elongation of STA to C22:4n-3. When STA was added, the levels of fatty acids produced by two-carbon elongation were 0.3% ETA and 0.23% C22:4n-3. […] MELO4p also appeared to be involved in the elongation of ALA; however, the small amount of the fatty acid produced by two-carbon elongation (0.16% of ETrA) may not be significant.

[1] = 25 μM AA added exogenously, FIG. 57B
[2] = 25 μM ADA added exogenously, FIG. 57B
[3] = 25 μM DPA added, second experiment
[4] = 25 μM EPA added, second experiment
[5] = C22 substrate ADA added, 25 μM, FIG. 56
[6] = C22 substrate printed as EPA, 25 μM, FIG. 56

B1: MELO4: mouse PUFA elongation enzyme from brain cDNA (SEQ ID NO:5), expressed in yeast from pRAE-84 (protein, listed as Mus musculus)
chain: MEQLKAFDNEVNAFLDNMFGPRDSRVRGWFLLDSYLPTFILTITYLLSIWLGNKYMKNRPALSLRGILTLYNLAITLLSAYMLVELILSSWEGGYNLQCQNLDSAGEGDVRVAKVLWWYYFSKLVEFLDTIFFVLRKKTNQITFLHVYHHASMFNIWWCVLNWIPCGQSFFGPTLNSFIHILMYSYYGLSVFPSMHKYLWWKKYLTQAQLVQFVLTITHTLSAVVKPCGFPFGCLIFQSSYMMTLVILFLNFYIQTYRKKPVKKELQEKEVKNGFPKAHLIVANGMTDKKAQ
- conversion of AA to ADA [1]: 8.7%
- conversion of ADA to TTA [1]: 43.8%
- level of ADA, of the total fatty acids [1]: 0.5%
- level of TTA, of the total fatty acids [1]: 0.39%
- conversion of AA to ADA (25 μM AA added, FIG. 56): 10.4%
- conversion of ADA to TTA (25 μM AA added, FIG. 56): 62.6%
- level of ADA, of the total fatty acids (25 μM AA added, FIG. 56): 0.64%
- level of TTA, of the total fatty acids (25 μM AA added, FIG. 56): 1.07%
- conversion of ADA to TTA [2]: 7.3%
- level of TTA, of the total fatty acids [2]: 1.3%
- level of ETrA (25 μM ALA, may not be significant): 0.16%
- conversion of DPA to TPA [3]: 46.4%
- level of TPA, of the total fatty acids [3]: 3.09%
- conversion of DPA to TPA (25 μM EPA added, FIG. 56): 82.8%
- conversion of EPA to DPA (25 μM EPA added, FIG. 56): 32.7%
- level of DPA, of the total fatty acids (25 μM EPA added, FIG. 56): 1.47%
- level of TPA, of the total fatty acids (25 μM EPA added, FIG. 56): 7.06%
- conversion of DPA to TPA [4]: 73.6%
- conversion of EPA to DPA [4]: 24.0%
- level of DPA, of the total fatty acids [4]: 1.21%
- level of TPA, of the total fatty acids [4]: 3.38%
- elongation of GLA to DGLA (25 μM GLA, 42-48 hours at 30° C., FIG. 56): GLA was not elongated
- conversion of GLA to DGLA (25 μM GLA, FIG. 57B): 14.7%
- level of DGLA in lipid profile (25 μM GLA, FIG. 57B): 0.43%
- conversion of ETA to C22:4n-3 (25 μM STA added): 43.4%
- conversion of STA to ETA (25 μM STA added): 11.1%
- level of C22:4n-3 (25 μM STA added): 0.23%
- level of ETA (25 μM STA added): 0.3%
- elongation of monounsaturated fatty acids PTA, OA, or EA (25 μM substrate): also not involved
- elongation of saturated fatty acids PA, SA, ARA, or BA (25 μM substrate, FIG. 57A): not involved
- conversion of ADA to TTA [5]: 9.2%
- level of TTA, of the total fatty acids [5]: 2.4%
- conversion of C22 substrate to TPA [6]: 43.9%
- level of TPA, of the total fatty acids [6]: 3.82%
